# Laboratory results from patent publication US20260224723A1, “ANTI-B7H3 ANTIBODY-DRUG CONJUGATE AND USE THEREOF” (Duality Biologics (Suzhou) Co., Ltd., priority 2022, published 2026).
# Experiments:
# [1] = target: Human full-length B7H3 on MCF-7 cells (human) (UniProt Q5ZPR3); experiment: cell-based or functional assay
# [2] = target: Human full-length B7H3 on MCF-7 cells (human) (UniProt Q5ZPR3); experiment: FACS on MCF-7 cells, Alexa 647 anti-human secondary
# [3] = target: Cynomolgus monkey full-length B7H3 on transfected FlpinCHO cells (cynomolgus monkey); experiment: FACS on cynomolgus monkey B7H3-transfected FlpinCHO cell pool; negative control
Substance,Antibody internalization EC50 [1],Antibody internalization Maximum MFI [1],EC50 [2],Maximum MFI [2],Maximum MFI [3]
Enoblituzumab (MacroGenics) (antibody),1.95 nM,39800 MFI,2.49 nM,4640 MFI,–
hIgG1 isotype (antibody),–,21 MFI,–,–,6.67 MFI
